In patent US20210332120A1:

Biological target: human IL-17A (human) (UniProt Q16552)
Assay: cell-based or functional assay

Chain of human IL-17A (human) (Q16552 20-155 limits assumed): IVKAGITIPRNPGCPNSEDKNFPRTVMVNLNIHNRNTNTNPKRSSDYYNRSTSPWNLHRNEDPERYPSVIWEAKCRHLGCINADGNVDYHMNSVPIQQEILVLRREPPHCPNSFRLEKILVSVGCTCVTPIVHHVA

In the case of “BCD-085 anti-IL-17A monospecific antibody (BIOCAD)”, the IC50, IL-17A-dependent IL-6 production, HT1080 cells is reported as 9.2 ng/mL and the IC50, dual IL-17A/TNFα-dependent IL-6 production, HT1080 cells is reported as 25 pM.
